Values joined by “and” are separate entries in the source; they are usually repeats but may differ in a detail not shown here. Equal values may be shown once.
Key:
[1] = tested on: CD14 positive recurrent bladder cancer patient-derived xenograft (PDX); assay: Amount of anti-CD14-IgG1 (5-40 mg/kg) for tumor treatment in PDX mice (tumor length, width, volume, tumor weight; Example 7); format: in vivo; conditions: for Tumor weight after 28 days: individual mice 1-5
Source text: After removing the primary tumor tissue from the patient, the tissue was temporarily placed in a complete culture medium containing RPMI1640 (Gibco Roswell Park Memorial Institute 1640 Media)+PS (penicillin and streptomycin)+10% FBS (Fetal bovine serum). The tissue was then transported to a sterile operating room within an SPF-grade (Specific Pathogen Free) animal facility. The tumor tissue was cut to an appropriate size (5 millimeters (mm) in diameter). Severely immunodeficient NSG (NOD scid gamma mouse) mice were anesthetized using an isoflurane respirator. The tumor was transplanted subcutaneously into the right rib area through surgery. When the tumor volume reached 1 cm^3, it was passaged following the same procedure, and after expanding for three generations, the tumor became stable for use in formal experiments. During the experiment, passaging and expansion were performed as needed. When the tumor volume reached 100 mm^3, the mice were divided into groups according to the experimental requirements and treated with drugs.
(§1) To evaluate concentrations for the anti-CD14-IgG1 antibody, PDX mice were treated with five different concentrations of the IgG1 antibody over a period of 28 days. For these experiments, drug administration on the PDX mice was performed intravenously on alternating 4 days and 3 days.
(§2) The five different concentrations of the anti-CD14-IgG1 antibody tested include 5 mg/kg, 10 mg/kg, 15 mg/kg, 25 mg/kg, and 40 mg/kg. A control regimen was utilized as a comparative example. […] The non-specific IgG1 has no binding affinity to antigen. […] Tumor weight and tumor volume were calculated as described above.

[2] = Mouse weight under anti-CD14-IgG1 dosages of Example 7 (PDX mice); format: in vivo
Protocol: as §1, §2

[3] = Day 28, IgG1 (5 mg/kg), per mouse 1-5, 5 mg/kg
[4] = Day 28, IgG1 (10 mg/kg), per mouse 1-5, 10 mg/kg

B1: D6DD3D001: mouse-derived anti-CD14 IgG1 antibody; VH SEQ ID NO: 1, VL SEQ ID NO: 3, heavy chain SEQ ID NO: 2, light chain SEQ ID NO: 4 (antibody)
heavy: DVQLQQSGPGLVKPSQSLSLTCTVTGYSITSDSAWNWIRQFPGNRLEWMGYISYSGSTSYNPSLKSRISITRDTSKNQFFLQLNSVTTEDTATYYCVRGLRFAYWGQGTLVTVSSPSVFLFPPKPKDTLMISRTPEVTCVVVDVSHEDPEVKFNWYVDGVEVHNAKTKPREEQYNSTYRVVSVLTVLHQDWLNGKEYKCKVSNKALPAPIEKTISKAKGQPREPQVYTLPPSREEMTKNQVSLTCLVKGFYPSDIAVEWESNGQPENNYKTTPPVLDSDGSFFLYSKLTVDKSRWQQGNVFSCSVMHEALHNHYTQKSLSLSPGK
light: DIVLTQSPASLAVSLGQRATISCRASESVDSYVNSFLHWYQQKPGQPPKLLIYRASNLQSGIPARFSGSGSRTDFTLTINPVEADDVATYYCQQSNEDPYTFGGGTKLEIKRTVAAPSVFIFPPSDEQLKSGTASVVCLLNNFYPREAKVQWKVDNALQSGNSQESVTEQDSKDSTYSLSSTLTLSKADYEKHKVYACEVTHQGLSSPVTKSFNRGEC
With B1 the “Tumor Length” value [1, 3] was 9.76 mm and 9.79 mm and 10.39 mm and 11.02 mm and 10.87 mm, the “Tumor Volume” value [1, 3] was 333.47 mm^3 and 459.47 mm^3 and 555.77 mm^3 and 603.55 mm^3 and 637.97 mm^3 and the “Tumor Width” value [1, 3] was 8.08 mm and 9.47 mm and 10.11 mm and 10.23 mm and 10.59 mm. The “Tumor Volume” value [1, 4] was 231.00 mm^3 and 313.49 mm^3 and 338.93 mm^3 and 402.03 mm^3 and 419.55 mm^3, the “Tumor weight after 28 days” value ([1]; IgG1 5 mg/kg, 5 mg/kg) was 0.486 grams and 0.535 grams and 0.567 grams and 0.502 grams and 0.625 grams and the “Tumor weight after 28 days” value ([1]; IgG1 10 mg/kg, 10 mg/kg) was 0.341 grams and 0.302 grams and 0.267 grams and 0.285 grams and 0.386 grams. The “Tumor weight after 28 days” value ([1]; IgG1 15 mg/kg, 15 mg/kg) was 0.215 grams and 0.202 grams and 0.246 grams and 0.253 grams and 0.291 grams, the “Tumor weight after 28 days” value ([1]; IgG1 25 mg/kg, 25 mg/kg) was 0.158 grams and 0.184 grams and 0.191 grams and 0.204 grams and 0.211 grams and the “Tumor weight after 28 days” value ([1]; IgG1 40 mg/kg, 40 mg/kg) was 0.128 grams and 0.195 grams and 0.199 grams and 0.205 grams and 0.206 grams. For the same molecule, the “tumor inhibition level versus dosage” value ([1]; anti-CD14-IgG1 5 mg/kg to 15 mg/kg, 28 days) was “significantly increase with the dosage”, the “tumor inhibition rate versus dosage” value ([1]; anti-CD14-IgG1 15 mg/kg to 40 mg/kg, 28 days) was “tumor inhibition rate remaining the same across the three groups” and the “Mouse Weight” value ([2]; Day 0, IgG1 (10 mg/kg), per mouse 1-5, 10 mg/kg) was 19.83 g and 20.73 g and 20.13 g and 20.77 g and 19.27 g. For the same molecule, the “Mouse Weight” value ([2]; Day 0, IgG1 (15 mg/kg), per mouse 1-5, 15 mg/kg) was 20.37 g and 19.02 g and 20.34 g and 19.62 g and 19.24 g, the “Mouse Weight” value ([2]; Day 0, IgG1 (25 mg/kg), per mouse 1-5, 25 mg/kg) was 19.63 g and 20.3 g and 19.71 g and 20.07 g and 20.02 g and the “Mouse Weight” value ([2]; Day 4, IgG1 (5 mg/kg), per mouse 1-5, 5 mg/kg) was 20.33 g and 20.63 g and 19.58 g and 19.86 g and 20.45 g. The “Mouse Weight” value ([2]; Day 4, IgG1 (10 mg/kg), per mouse 1-5, 10 mg/kg) was 19.89 g and 20.39 g and 19.36 g and 20.74 g and 20.98 g, the “Mouse Weight” value ([2]; Day 4, IgG1 (15 mg/kg), per mouse 1-5, 15 mg/kg) was 20.83 g and 19.54 g and 20.87 g and 20.44 g and 20.68 g and the “Mouse Weight” value ([2]; Day 4, IgG1 (25 mg/kg), per mouse 1-5, 25 mg/kg) was 20.75 g and 19.2 g and 20.99 g and 20.16 g and 20.55 g. For the same molecule, the “Mouse Weight” value ([2]; Day 7, IgG1 (5 mg/kg), per mouse 1-5, 5 mg/kg) was 20.95 g and 20.07 g and 20.36 g and 20.83 g and 20.56 g, the “Mouse Weight” value ([2]; Day 7, IgG1 (10 mg/kg), per mouse 1-5, 10 mg/kg) was 20.81 g and 19.35 g and 19.89 g and 20.23 g and 21.08 g and the “Mouse Weight” value ([2]; Day 7, IgG1 (15 mg/kg), per mouse 1-5, 15 mg/kg) was 19.65 g and 20.62 g and 20.38 g and 20.56 g and 20.71 g. The “Mouse Weight” value ([2]; Day 7, IgG1 (25 mg/kg), per mouse 1-5, 25 mg/kg) was 20.86 g and 20.2 g and 20.76 g and 21.38 g and 20.06 g, the “Mouse Weight” value ([2]; Day 11, IgG1 (5 mg/kg), per mouse 1-5, 5 mg/kg) was 20.85 g and 20.72 g and 20.22 g and 21.21 g and 20.94 g and the “Mouse Weight” value ([2]; Day 11, IgG1 (10 mg/kg), per mouse 1-5, 10 mg/kg) was 20.77 g and 20.5 g and 20.97 g and 21.03 g and 20.94 g. For the same molecule, the “Mouse Weight” value ([2]; Day 11, IgG1 (15 mg/kg), per mouse 1-5, 15 mg/kg) was 20.35 g and 20.89 g and 21.32 g and 21.08 g and 20.47 g, the “Mouse Weight” value ([2]; Day 11, IgG1 (25 mg/kg), per mouse 1-5, 25 mg/kg) was 20.11 g and 20.4 g and 19.5 g and 20.84 g and 21.5 g and the “Mouse Weight” value ([2]; Day 14, IgG1 (5 mg/kg), per mouse 1-5, 5 mg/kg) was 20.75 g and 21.06 g and 20.89 g and 21.69 g and 20.67 g. For the same molecule, the “Mouse Weight” value ([2]; Day 14, IgG1 (10 mg/kg), per mouse 1-5, 10 mg/kg) was 20.15 g and 20.69 g and 21.19 g and 21.53 g and 20.71 g, the “Mouse Weight” value ([2]; Day 14, IgG1 (15 mg/kg), per mouse 1-5, 15 mg/kg) was 20.47 g and 21.16 g and 21.65 g and 20.87 g and 21.13 g and the “Mouse Weight” value ([2]; Day 14, IgG1 (25 mg/kg), per mouse 1-5, 25 mg/kg) was 20.13 g and 21.05 g and 20.39 g and 21.39 g and 21.62 g. The “Mouse Weight” value ([2]; Day 18, IgG1 (5 mg/kg), per mouse 1-5, 5 mg/kg) was 21.11 g and 21.36 g and 20.44 g and 20.69 g and 21.33 g, the “Mouse Weight” value ([2]; Day 18, IgG1 (10 mg/kg), per mouse 1-5, 10 mg/kg) was 21.27 g and 20.66 g and 21.04 g and 20.85 g and 21.37 g and the “Mouse Weight” value ([2]; Day 18, IgG1 (15 mg/kg), per mouse 1-5, 15 mg/kg) was 20.73 g and 21.69 g and 20.31 g and 20.9 g and 21.29 g. For the same molecule, the “Mouse Weight” value ([2]; Day 18, IgG1 (25 mg/kg), per mouse 1-5, 25 mg/kg) was 21.14 g and 21.03 g and 20.46 g and 21.57 g and 21.77 g, the “Mouse Weight” value ([2]; Day 21, IgG1 (5 mg/kg), per mouse 1-5, 5 mg/kg) was 20.92 g and 21.85 g and 21.42 g and 21.87 g and 21.66 g and the “Mouse Weight” value ([2]; Day 21, IgG1 (10 mg/kg), per mouse 1-5, 10 mg/kg) was 21.25 g and 21.16 g and 20.97 g and 21.13 g and 21.28 g. The “Mouse Weight” value ([2]; Day 21, IgG1 (15 mg/kg), per mouse 1-5, 15 mg/kg) was 20.6 g and 21.12 g and 21.33 g and 20.4 g and 21.98 g, the “Mouse Weight” value ([2]; Day 21, IgG1 (25 mg/kg), per mouse 1-5, 25 mg/kg) was 21.3 g and 22.05 g and 21.54 g and 20.62 g and 21.57 g and the “Mouse Weight” value ([2]; Day 25, IgG1 (5 mg/kg), per mouse 1-5, 5 mg/kg) was 22.45 g and 21.06 g and 21.98 g and 22.14 g and 22.16 g. For the same molecule, the “Mouse Weight” value ([2]; Day 25, IgG1 (10 mg/kg), per mouse 1-5, 10 mg/kg) was 22.27 g and 22.35 g and 21.64 g and 20.37 g and 22.93 g, the “Mouse Weight” value ([2]; Day 25, IgG1 (15 mg/kg), per mouse 1-5, 15 mg/kg) was 22.28 g and 21.01 g and 22.42 g and 20.52 g and 22.73 g and the “Mouse Weight” value ([2]; Day 25, IgG1 (25 mg/kg), per mouse 1-5, 25 mg/kg) was 22.17 g and 21.73 g and 22.39 g and 21.5 g and 20.56 g. For the same molecule, the “Mouse Weight” value [2, 3] was 22.42 g and 23.8 g and 22.04 g and 21.81 g and 21.72 g, the “Mouse Weight” value [2, 4] was 22.71 g and 23.8 g and 21.44 g and 22.24 g and 21.16 g and the “Mouse Weight” value ([2]; Day 28, IgG1 (15 mg/kg), per mouse 1-5, 15 mg/kg) was 22.57 g and 21.49 g and 23.11 g and 21.72 g and 23.44 g. The “Mouse Weight” value ([2]; Day 28, IgG1 (25 mg/kg), per mouse 1-5, 25 mg/kg) was 22.62 g and 23.62 g and 22.69 g and 21.64 g and 23.4 g, the “Mouse Weight” value ([2]; IgG1 40 mg/kg group, Day 0, individual mice 1-5, 40 mg/kg) was 20.64 g and 20.79 g and 20.06 g and 20.43 g and 19.66 g and the “Mouse Weight” value ([2]; IgG1 40 mg/kg group, Day 4, individual mice 1-5, 40 mg/kg) was 20.37 g and 20.71 g and 19.79 g and 20.56 g and 20.73 g. The “Mouse Weight” value ([2]; IgG1 40 mg/kg group, Day 7, individual mice 1-5, 40 mg/kg) was 20.29 g and 20.01 g and 20.53 g and 21.04 g and 20.66 g, the “Mouse Weight” value ([2]; IgG1 40 mg/kg group, Day 11, individual mice 1-5, 40 mg/kg) was 20.49 g and 21.74 g and 20.21 g and 21.3 g and 20.92 g and the “Mouse Weight” value ([2]; IgG1 40 mg/kg group, Day 14, individual mice 1-5, 40 mg/kg) was 21.19 g and 20.75 g and 20.83 g and 20.91 g and 20.61 g. The “Mouse Weight” value ([2]; IgG1 40 mg/kg group, Day 18, individual mice 1-5, 40 mg/kg) was 21.32 g and 21.28 g and 21.36 g and 20.36 g and 21.14 g, the “Mouse Weight” value ([2]; IgG1 40 mg/kg group, Day 21, individual mice 1-5, 40 mg/kg) was 21.75 g and 20.47 g and 21.5 g and 21.64 g and 21.77 g and the “Mouse Weight” value ([2]; IgG1 40 mg/kg group, Day 25, individual mice 1-5, 40 mg/kg) was 22.33 g and 21.23 g and 22.07 g and 21.9 g and 22.06 g. The “Mouse Weight” value ([2]; IgG1 40 mg/kg group, Day 28, individual mice 1-5, 40 mg/kg) was 23.59 g and 23.7 g and 22.4 g and 21.39 g and 22.91 g.

Reference: patent US20250011456A1, “ANTIBODIES AGAINST CD14 AND USES THEREOF” (Villanelle Life Science Inc, priority 2023, published 2025)
